Experimental findings from the DeepSol protein solubility set are described below.

This series can be described thus: soluble on expression in E. coli; label from the status in PepcDB or PDB records.
Consider “MSLTTKYIFVTGGVVSSLGKGITAASLGRLLKNRGMKVTIQKFDPYINVDPGTMSPYQHGEVFVTDDGAETDLDLGHYERFIDINLNKNSNVTTGKIYSSVLKKERRGDYLGGTVQVIPHVTNEIKERVFRAGRETNADVVITEIGGTVGDIESLPFLEAIRQIKSDIGVDNVMYIHCTLIPYLAAAGEMKSKPTQHSVKELRSLGIQPNVIVVRTEKPVPEEMKEKIALFCDIRKDSVIEARDADTLYEVPLDLQAQNLDEIVCDHLNLSCQEADMTEWKSLVEKVKNLSGLVKIALVGKYVALPDAYLSVAEALRHAGYAFDADINIKWVDSEDVTAENVAEQLQGVDGILVPGGFGDRGIEGKIEAIRYAREQKIPFLGICLGMQLASIEFARNVLGLEGAHSAEINPDTPHPIIDLLPEQKDVEDMGGTLRLGLYPCKLKNGTLAQSAYNDQVIYERHRHRYEFNNQYREQMEAKGFMFSGTSPDGRLVEIVELGDHPFFIASQFHPEFVSRPTRPQPLFREFIQASLRKEGHHHHHH”, for which the “soluble on expression in E. coli” value is reported as “soluble”.

As for “MNLLPYQFVGEVVRGFGRGGKELGCPTANMDGTVVNGLPEGLPVGVYFGTAKLDGKSYKMAMSIGWNPQYQNEKKTVELHLIDYSGSDFYGKTLSAVIIGFIREMKSFESLDELKSAIAMDIKVARRGSVEQGKL”, the “soluble on expression in E. coli” value is “not soluble”.

For the sequence “MGASKDAMDEEGNAAADLGLVARIRESFDSLTATEREAAQFILGHLTDVLVCNSVELSQLSGISQPTLSRLYRKLGYANAGEFRRDVRRVHRPGSPELSRHTQCDDLVADHLRRDEESLKRTFEGIDRAQLSSACQAMATAPHVAVVGYHSSYPVALHMREQLMRLRGNVDILPNPGQSIAEDLVDYAAGDVIVIIGVGRRLPFFSRLIDVMLERGLTVVVIGDISARNAVIGRNVAFFKVVLSSHVLTSFTAAFALIALMVDEVGKCLVDTEDEVHARIEGINDCFDALNELED”, the “soluble on expression in E. coli” value is reported as “not soluble”.

“METKKTLREGYTTGSCATVATKAALTALITGQVQAEATIRLPIGRVVTFSLASCSFDGETATASVVKDGGDDPDATHGALIVSTVSWTSSPGVHIDGGEGVGRVTKPGLPVPVGEAAINPVPRQMIREAVNEVLAQYGLHRGVKVVISVPGGEEIAKKTLNPRLGIIGGISILGTRGIVVPFSTAAYRASIVQALQVAKANGCRHVVITTGGRSEKYAMQEYPHLPEEAFIEMGDFVGFTLKQCKRLGIKMVSMVGMMGKFSKVAQGVMMVHSKSAPVDFGFLAAIAEQAGACPELVAAVRGANTAAQVGDMMQEAGCTKFFELLCEACCQAALHEVGGGLTVATSIYTMNGQRLGKAVQTDGDDEVDRCRC”: the “soluble on expression in E. coli” value is recorded as “not soluble”.

Take “MFSIQIPALHGKYLREVLESIREQTFQDYEVVVVNSGGGVISDIVHEYGFKEVRKDVKLLEARYLANKESRGDYAFLLDETRPLRKDALEILSKNLHDMVIIGERELGDSFWSRAAQLDKENIMECNSPEAVRGFALPRLFKRELLTASLEKLRENLREKFSQVVFPDHELIYYEASGFSNDIFVIKDELVYHYGDFTLKEIVRKYYRYGKSLKVLKDTPYSFMTSVSRKRREICVGGIKGRLTLYILYLARGIPFLFGKFSLLEHHHHHH”: the “soluble on expression in E. coli” value is on record as “soluble”.

For the sequence “MGSDKIHHHHHHMTRSAEPRVLQFCHGYDGPFLDCARQYASLFAGTPYKVTTVFLTGRSDPEVAARCASDEVLFLEYGSRDIRGLKLKAIRDLREIARSRDFRFCIAHRFKPIWIASLATRLPIVGVHHAFGDYQRLSRKVFAGLMSKRLSLLAVSDAVRDDIRRCLPKWPAERIETLYNRIDVAALQAEQVERLSARRQLRLPDEAWVVGNVGRLHPDKDQATLLRGFAAALPRLPQNSLLAILGSGRLEEQLKDLACELGIGERVLFLGQVEEARRYFKAFDAFALSSDHEPFGMVLLEAMVAGVPLIATACGGAREVVEGVGILFPLGDETALAEGLTHLAALDRRQREACARLMLERLETRFSDAAVRREFWRLPTIAGFASESAC”, the “soluble on expression in E. coli” value is recorded as “not soluble”.

With “MAHHHHHHMDVEERTRRCSSLGLAVRNLPRDTASSFVHKFFEDHVGCVQEVMMHSSRPNQSRNIAAPNTNGVDQGKRGNDDNDPPASFGLSGRRDGNSSSGIAVKTCSNDADGNTLCLVFFSAAECVRLAKLLYMRRPELFNVLGVVDGKELRLTIPSKLIRLSRTAHAHCDDGDNTRSKKSSQGEEDTPKGDAEKNDAGT”, the “soluble on expression in E. coli” value is “not soluble”.

Regarding “MGSDKIHHHHHHMDIIVVGGGTSGLLSALALEKEGHNVIVFEKESYVGGLCRSEKIDGYSVDIGVHAITMLDNGPLIRLLNKYSRYLPNFRNYGDYYIRTDKLHRIPVSMHEWMTTPVIPNKDKVLITSKIMDLMTMGFTKDASVYDFVKEMGLSSTSVDFFNTIAYFLSGEDLENTPLWRFFTGAGYIPEDDILPFIYKDMKINPLKSTLVKKFGTERIINILNDGFISSIKNGSKKYINKFMTEHRYSTQGYPVGGVQSICNCITYSLRNTQIKNEEVKKITKNGKKYTVKTSEGEYTSDIIVYSAPAITLPKVAKINKIQKNKEKLSNIKFTKSTTVWIGDEKNYFPYLGSEIWIDNPCWASTVSNYDESLAPKGKHLMGFSFVNSKKEDALKTIESKLNLNTDKVDMLYVQETVPEQASCSIGQFFVYPKIDDTFFVVGTDSDPRSMGITRAAYSVEVMLSEFKNIYDTQKETAKK”, the “soluble on expression in E. coli” value was “not soluble”.

For the sequence “MPRKAREYPEEGEFVVATVKRIHNYGAFLELDEYPGKEAFMHISEVASTWVRNIRDYLKEGQKVVAKVIRVDPRKGHIDLSLRRVTQQQRKAKLQEFKRAQKAENLLRLAAEKLGKDFEAAWREVWVPLEEEWGEVYAAFEDAAKDGIEVLKGHVPDEWLPVLKEIVENYVEVPTVTIDAEFEITVPKPNGVEIIKEALIRARDRANKEKDIEVKFTYQGAPRYRIDITAPDYYKAEEVLEDIAEEILRVIKQAGGEATLLRKEKRIRKVKKRKK”, the “soluble on expression in E. coli” value is recorded as “soluble”.

With “MGSDKIHHHHHHCGVEEKTEVQLLKEMPKPKAMTIDPSLSQKEATEMVHAAQRFYAFWDTGKEELIPQTVTENFFDHTLPKGRPQGTEGLKFAAQNFRKIVPNIHCEIEDLLVVGDKVTARLSFTGTHNDKKIDFFAIDILHVKDGKITEDWHLEDNLTLKQQLGLIAEE”, the “soluble on expression in E. coli” value is “not soluble”.

Take “SNAMILVPIDISDKEFTERIISHVESEARIDDAEVHFLTVIPSLPYYASLGMAYTAELPGMDELREGSETQLKEIAKKFSIPEDRMHFHVAEGSPKDKILALAKSLPADLVIIASHRPDITTYLLGSNAAAVVRHAECSVLVVR”: the “soluble on expression in E. coli” value is “soluble”.

Take “MGSDKIHHHHHHMIDQLYRKAVLTVAERPQVEQLARQKMWNLAERFVAGESIESAIQAVQALERDGIAGNLDLLGEFIDSPAKCTEFADDVIKLIEAAHAAGIKPYVSIKLSSVGQGKDENGEDLGLTNARRIIAKAKEYGGFICLDMEDHTRVDVTLEQFRTLVGEFGAEHVGTVLQSYLYRSLGDRASLDDLRPNIRMVKGAYLEPATVAYPDKADVDQNYRRLVFQHLKAGNYTNVATHDERIIDDVKRFVLAHGIGKDAFEFQMLYGIRRDLQKQLAAEGYRVRVYLPYGRDWYAYFSRRIAETPRNAAFVVQGMLKG”: the “soluble on expression in E. coli” value was “not soluble”.

As to “MDKRIENAMNELINTEIWSTGLYLSLQVYFEDERLPILSSWLNSQAQDNMNKVYQMMNRICHDGGCVVINEMKRDTHEWTTPLNALNELLEHEQYISRQVNTFLILCWNVSMSFHSFISGLYADRIYVSTAFMELLRILAKENERKLPYF”, the “soluble on expression in E. coli” value was “not soluble”.

As to “MLVTTTERISGQEYEIIGEVFGLTTRSKNMFKDLGAGLKSVVGGEIKGYTDMQREARDQAIERLKAEASKLGADAVVMMRFDSGTIGTDMQSVVAYGTAVKYILEHHHHHH”, the “soluble on expression in E. coli” value is “not soluble”.

For the sequence “MGSDKIHHHHHHEDDLSAKAWLKNMSQAMHDKQYKTSIIQLQADHIRPLVYIHGIVDNKEVALLEYLNGPPKNAVRVGNTVTFIEHDQPAYSVVAPRIQGIWPAALAGDLSQLEKGYQFVIGGRGRIAGRPGQMIRLLANDDNRYDAQVWIDMDTYLPLRFDSLNKEKQLLEQTMVIELIELTEPANILIEAAKQEWPAVMNQAERTDGKNWQFTWLPEGFDVVVRDHHRLIGIHEPVEYVALTDGLANISVYVARAGENPMPNELLIRNGLSMVVVKVGTLEVVAIGKVPSETLDKIANSLVLK”, the “soluble on expression in E. coli” value was “not soluble”.
